# Test results taken from PMC5201023, “An unconventional interaction between Dis1/TOG and Mal3/EB1 in fission yeast promotes the fidelity of chromosome segregation” (Journal of Cell Science, 2016).
# T1: Dis1 C1–eGFP (amino acids 520–882) (Schizosaccharomyces pombe, UniProt Q09933 520-882)
# T1 construct: source: bacterially expressed, purified (as the other Dis1–eGFP constructs)
# T1 sequence (looked up): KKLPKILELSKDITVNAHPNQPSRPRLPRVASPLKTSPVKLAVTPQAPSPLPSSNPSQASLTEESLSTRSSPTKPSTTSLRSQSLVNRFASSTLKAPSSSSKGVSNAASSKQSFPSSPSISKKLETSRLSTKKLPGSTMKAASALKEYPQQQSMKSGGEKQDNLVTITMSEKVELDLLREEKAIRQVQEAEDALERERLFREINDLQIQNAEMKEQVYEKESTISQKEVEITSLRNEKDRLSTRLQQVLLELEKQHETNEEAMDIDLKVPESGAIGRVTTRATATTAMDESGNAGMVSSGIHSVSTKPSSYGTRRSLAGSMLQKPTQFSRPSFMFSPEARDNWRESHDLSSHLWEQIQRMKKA
# T2: Dis1–HA (full-length Dis1 with a hemagglutinin tag at its C-terminus) (Schizosaccharomyces pombe, UniProt Q09933 1-882)
# T2 construct: Dis1, fission yeast (S. pombe) member of the XMAP215/TOG family; cDNA optimised for E. coli codons; also called recombinant Dis1 with an HA tag; source: bacterially expressed, purified (IgG Sepharose, Precision protease); not shown: HA, C-terminal, kept
# T2 sequence (looked up): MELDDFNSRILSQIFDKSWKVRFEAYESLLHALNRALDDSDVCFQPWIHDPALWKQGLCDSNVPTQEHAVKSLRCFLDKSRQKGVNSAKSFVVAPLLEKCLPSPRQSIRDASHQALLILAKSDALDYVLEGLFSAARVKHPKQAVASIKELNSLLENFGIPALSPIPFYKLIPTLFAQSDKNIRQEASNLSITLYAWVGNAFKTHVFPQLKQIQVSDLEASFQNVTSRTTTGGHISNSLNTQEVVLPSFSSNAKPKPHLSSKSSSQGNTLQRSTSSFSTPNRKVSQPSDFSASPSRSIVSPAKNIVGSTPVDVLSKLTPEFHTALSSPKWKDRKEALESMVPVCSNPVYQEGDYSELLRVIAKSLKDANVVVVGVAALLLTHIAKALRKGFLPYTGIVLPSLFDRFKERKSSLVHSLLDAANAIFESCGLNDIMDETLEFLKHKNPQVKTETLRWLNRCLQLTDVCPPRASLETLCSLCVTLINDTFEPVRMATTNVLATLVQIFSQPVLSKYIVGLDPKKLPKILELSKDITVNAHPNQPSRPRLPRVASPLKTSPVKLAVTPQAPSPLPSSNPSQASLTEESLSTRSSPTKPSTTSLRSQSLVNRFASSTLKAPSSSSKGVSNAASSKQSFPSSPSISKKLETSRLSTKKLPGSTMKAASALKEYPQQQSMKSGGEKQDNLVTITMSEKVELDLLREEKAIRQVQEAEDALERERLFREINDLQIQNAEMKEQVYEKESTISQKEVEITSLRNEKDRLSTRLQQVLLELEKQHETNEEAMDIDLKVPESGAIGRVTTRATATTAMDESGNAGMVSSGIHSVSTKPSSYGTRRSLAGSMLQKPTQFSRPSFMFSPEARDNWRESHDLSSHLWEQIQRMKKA
# B1: GST–Mal3 C1 (amino acids 144–308) (domain or fragment, Schizosaccharomyces pombe, UniProt Q10113 144-308, looked up)
# chain: SSGSSTPSMTKSSANNNNVSSTANTAAVLRAKQAQQQITSLETQLYEVNETMFGLERERDFYFNKLREIEILVQTHLTTSPMSMENMLERIQAILYSTEDGFELPPDQPADLTTALTDHDTNNVAEEAQMTDLKDSETQRVPSAPDFVHARLQSLEVDDDENITF
# notes: also called C-terminal half
# B2: Mal3 (recombinant full-length, without fluorescent protein) (natural protein, Schizosaccharomyces pombe, UniProt Q10113 1-308, looked up)
# chain: MSESRQELLAWINQVTSLGLTRIEDCGKGYAMIQIFDSIYQDIPLKKVNFECNNEYQYINNWKVLQQVFLKKGIDKVVDPERLSRCKMQDNLEFVQWAKRFWDQYYPGGDYDALARRGNRGPANTRVMNSSAGATGPSRRRQVSSGSSTPSMTKSSANNNNVSSTANTAAVLRAKQAQQQITSLETQLYEVNETMFGLERERDFYFNKLREIEILVQTHLTTSPMSMENMLERIQAILYSTEDGFELPPDQPADLTTALTDHDTNNVAEEAQMTDLKDSETQRVPSAPDFVHARLQSLEVDDDENITF
# notes: Mal3, the sole EB1 homologue of fission yeast; also called unlabelled Mal3; source: bacterially expressed, purified (as in Maurer et al., 2011)
# B3: Dis1 peptide (amino acids 833–852) (peptide, UniProt Q09933 833-852, looked up)
# peptide: RRSLAGSMLQKPTQFSRPSF
# notes: source: spotted on the peptide array membrane
# B4: Dis1 C2–eGFP (amino acids 690–882) (domain or fragment, Schizosaccharomyces pombe, UniProt Q09933 690-882, looked up)
# chain: EKVELDLLREEKAIRQVQEAEDALERERLFREINDLQIQNAEMKEQVYEKESTISQKEVEITSLRNEKDRLSTRLQQVLLELEKQHETNEEAMDIDLKVPESGAIGRVTTRATATTAMDESGNAGMVSSGIHSVSTKPSSYGTRRSLAGSMLQKPTQFSRPSFMFSPEARDNWRESHDLSSHLWEQIQRMKKA
# notes: also called Dis1-C2–eGFP (WT); source: bacterially expressed, purified (as the other Dis1–eGFP constructs)
# B5: Dis1–eGFP (full-length Dis1 with eGFP fused to its C-terminus) (natural protein, Schizosaccharomyces pombe, UniProt Q09933 1-882, looked up)
# chain: MELDDFNSRILSQIFDKSWKVRFEAYESLLHALNRALDDSDVCFQPWIHDPALWKQGLCDSNVPTQEHAVKSLRCFLDKSRQKGVNSAKSFVVAPLLEKCLPSPRQSIRDASHQALLILAKSDALDYVLEGLFSAARVKHPKQAVASIKELNSLLENFGIPALSPIPFYKLIPTLFAQSDKNIRQEASNLSITLYAWVGNAFKTHVFPQLKQIQVSDLEASFQNVTSRTTTGGHISNSLNTQEVVLPSFSSNAKPKPHLSSKSSSQGNTLQRSTSSFSTPNRKVSQPSDFSASPSRSIVSPAKNIVGSTPVDVLSKLTPEFHTALSSPKWKDRKEALESMVPVCSNPVYQEGDYSELLRVIAKSLKDANVVVVGVAALLLTHIAKALRKGFLPYTGIVLPSLFDRFKERKSSLVHSLLDAANAIFESCGLNDIMDETLEFLKHKNPQVKTETLRWLNRCLQLTDVCPPRASLETLCSLCVTLINDTFEPVRMATTNVLATLVQIFSQPVLSKYIVGLDPKKLPKILELSKDITVNAHPNQPSRPRLPRVASPLKTSPVKLAVTPQAPSPLPSSNPSQASLTEESLSTRSSPTKPSTTSLRSQSLVNRFASSTLKAPSSSSKGVSNAASSKQSFPSSPSISKKLETSRLSTKKLPGSTMKAASALKEYPQQQSMKSGGEKQDNLVTITMSEKVELDLLREEKAIRQVQEAEDALERERLFREINDLQIQNAEMKEQVYEKESTISQKEVEITSLRNEKDRLSTRLQQVLLELEKQHETNEEAMDIDLKVPESGAIGRVTTRATATTAMDESGNAGMVSSGIHSVSTKPSSYGTRRSLAGSMLQKPTQFSRPSFMFSPEARDNWRESHDLSSHLWEQIQRMKKA
# B6: GST–Mal3 (GST-tagged Mal3) (natural protein, Schizosaccharomyces pombe, UniProt Q10113 1-308, looked up)
# chain: MSESRQELLAWINQVTSLGLTRIEDCGKGYAMIQIFDSIYQDIPLKKVNFECNNEYQYINNWKVLQQVFLKKGIDKVVDPERLSRCKMQDNLEFVQWAKRFWDQYYPGGDYDALARRGNRGPANTRVMNSSAGATGPSRRRQVSSGSSTPSMTKSSANNNNVSSTANTAAVLRAKQAQQQITSLETQLYEVNETMFGLERERDFYFNKLREIEILVQTHLTTSPMSMENMLERIQAILYSTEDGFELPPDQPADLTTALTDHDTNNVAEEAQMTDLKDSETQRVPSAPDFVHARLQSLEVDDDENITF
# notes: Mal3, the sole EB1 homologue of fission yeast; also called Mal3 FL
# B7: Mal3 C4 (amino acids 174–247; C-terminal part of the coiled-coil and the EBH domain) (domain or fragment, Schizosaccharomyces pombe, UniProt Q10113 174-247, looked up)
# chain: AKQAQQQITSLETQLYEVNETMFGLERERDFYFNKLREIEILVQTHLTTSPMSMENMLERIQAILYSTEDGFEL
# notes: Homodimer in both crystal structures; also called Mal3 EBH domain; source: purified (His-tag resin, TEV protease, gel filtration)
# Tests used:
# [1] = target: T1, Dis1 C1–eGFP (amino acids 520–882); test: pull-down; GST pulldown: 1 µM GST, GST–Mal3 or truncated GST–Mal3 on glutathione–Sepharose beads with 0.5 µM Dis1–eGFP proteins; BRB80 with 85 mM KCl, 0.01% Brij-35, 1 mM DTT; 1 h at 4°C; conditions: both partners purified
# [2] = target: T2, Dis1–HA (full-length Dis1 with a …); test: SEC; analytical gel filtration on Superose 6 10/300; 25 mM K-HEPES pH 7.5, 200 mM KCl, 1 mM EGTA, 1 mM MgCl2; 5 µM Dis1–eGFP with 10 µM tubulin, or 5 µM Dis1–HA with 20 µM Mal3; conditions: both partners purified
# [3] = target: B5; test: TIRF microscopy on dynamic microtubules in vitro; Cy5-labelled MTs grown from immobilised GMPCPP-stabilised seeds; BRB80 with 85 mM KCl, 1 mM GTP, 10 mM β-mercaptoethanol, 0.1% Brij-35, 0.1% methylcellulose; 30±1°C; 10-20 nM Dis1–eGFP proteins with or without 20 nM-1 µM Mal3; conditions: both partners purified
# [4] = target: B6; test: pull-down; peptide competition: 1 µM GST–Mal3 on glutathione beads pre-incubated 30 min with Dis1 peptide (0, 0.5, 2.5, 5.0, 50, 100 µM), then 0.5 µM Dis1 C2–eGFP for 1 h; conditions: both partners purified
# [5] = target: B2; test: TIRF microscopy on dynamic microtubules in vitro; Cy5-labelled MTs grown from immobilised GMPCPP-stabilised seeds; BRB80 with 85 mM KCl, 1 mM GTP, 10 mM β-mercaptoethanol, 0.1% Brij-35, 0.1% methylcellulose; 30±1°C; 10-20 nM Dis1–eGFP proteins with or without 20 nM-1 µM Mal3; conditions: both partners purified
# [6] = target: B2; test: cell-based or functional assay
# [7] = target: B5; test: pull-down; GST pulldown: 1 µM GST, GST–Mal3 or truncated GST–Mal3 on glutathione–Sepharose beads with 0.5 µM Dis1–eGFP proteins; BRB80 with 85 mM KCl, 0.01% Brij-35, 1 mM DTT; 1 h at 4°C; conditions: both partners purified
# [8] = target: B4; test: pull-down; Mal3 (amino acids 174–247) mixed with wild-type or LAPA Dis1-C2–eGFP and pulled down by GFP trap beads; conditions: both partners purified
binder,measurement,setting,value
B1,binding result,[1],binds
B2,binding result,[2],binds
same,binding result,[3],binds
B3,binding result,[4],binds
B4,binding result,[4],binds
same,binding result,[5],binds
B5,"MT catastrophe frequency with Mal3 and Dis1 together, fold over tubulin alone (Mal3 alone ∼1.9-fold, Dis1 alone no effect)",[6],~3.8 fold
B6,binding result,[7],binds
B7,binding result,[8],binds
